Reference: patent EP4755372A1, “POLYMERIC MICELLE […] POLYMER CHAIN OF SELF-A[…]” (INSTITUTE OF SCIENCE TOKYO, priority 2023, dated 2025)

Key:
[1] = tested on: CT26 mouse colorectal cancer cells; test: Gd-NCT experiment (neutron irradiation of CT26 tumor-bearing mice); format: in vivo; details: 3 administrations, Gd conc. 0.1 mmol/kg, neutron irradiation 10 minutes
Method: A tumor-bearing model prepared by subcutaneously grafting CT26 mouse colorectal cancer cells into mice (Balb/c, 6-week-old, female, SLC) was used in an experiment for Gd-NCT. A CT26 cell suspension was injected into the mouse right femoral region (2 × 10^5 cells/mouse, DMEM). After approximately 2 weeks, each sample was administered 3 times through the caudal vein of the mouse (after 0, 24 and 48 hours, Gd conc. 0.1 mmol/kg, n = 5). A PBS-administered group was used as a comparative control. At 72 hours after the first administration, the holder in which the mouse had been placed was set on a 5 mm-thick thermoplastic sheet containing 40 wt% ^6LiF (96% ^6Li) for shielding of thermal neutrons and irradiated with neutron rays for 10 minutes only at the tumor site of the right femoral region (5 MW, Kyoto University Research Reactor, fluence: 2.87 × 10^12 to 3.29 × 10^12 thermal neutron/cm^2, 5.10 × 10^11 to 5.86 × 10^11 epithermal neutron/cm^2). The antitumor effect was confirmed by time-dependent change in tumor volume, and toxicity was confirmed by change in mouse body weight.

[2] = Pharmacokinetics test in CT26 tumor-bearing mice, Gd concentration by ICP-MS; format: in vivo; details: caudal vein, Gd conc. 5 mg/kg; for blood retentivity and blood clearance: CT26 tumor-bearing mice; for tumor accumulation (Gd concentration): 24-48 hours after administration for SMDC-Gd4; for accumulation in different organs: liver, spleen, kidneys, brain, muscle, pancreas
Method: A tumor-bearing model was prepared by subcutaneously transplanting CT26 mouse colorectal cancer cells into mice (Balb/c, 6-week-old, female, SLC), and the model was used for pharmacokinetics testing. A cell suspension that had been subcultured (5% CO2, 37°C) using DMEM medium (containing 10% FBS and 1% penicillin streptomycin) was subcutaneously injected into the mouse dorsal region (1 × 10^6 cells/mouse, DMEM). At 10 days after administration, the tumor size was randomized and each sample was administered to the mouse through the caudal vein (Gd conc. 5 mg/kg, n = 6). After administration, blood was collected and the organs (tumors, liver, spleen, kidneys, pancreases, skin, muscles and brains) were dissected after specified time periods (1, 4, 8, 24 and 72 hours). After sampling, the plasma was collected by centrifugal separation of the blood to prepare a sample. The collected organs were pretreated (heated at 70% nitric acid, heating at 90°C for ≥1 hour, followed by dilution with ultrapure water), and the Gd concentration was measured using ICP-MS.
• Apparatus: Agilent 7700x ICP-MS/Agilent • Pretreatment apparatus: EYELA MG-2300/Tokyo Rikakikai Co., Ltd. • Standard solution: Gadolinium standard solution (Gd1000) for ICP analysis/FujiFilm-Wako • Results: Figs. 18 to 25

[3] = tested on: CT26 mouse colorectal cancer cells; test: MRI R1 mapping in CT26 tumor-bearing mice; format: in vivo; details: for tumor/muscle ratio (T/M ratio) of the relaxation rate: Gd conc. 0.1 mmol/kg
Method: CT26 mouse colorectal cancer cells were subcutaneously grafted into mice (BALB/c nu/nu mice, 5-week-old, female, SLC) to create a tumor-bearing model which was used for MRI. A CT26 cell suspension that had been subcultured (5% CO2, 37°C) using DMEM medium (containing 10% FBS and 1% penicillin streptomycin) was subcutaneously injected into the mouse dorsal region (1 × 10^6 cells/mouse, Hank's balanced salt solution). At 1 week after administration, the tumor size was randomized, and then each sample was administered to the mouse through the caudal vein (Gd conc. 0.1, 0.05, 0.03 and 0.01 mmol/kg). MRI imaging (R1 mapping, T1-weighted image) was carried out under isoflurane anesthesia.
• Apparatus: Horizontal 1.0 T Bruker ICON MRI system/Bruker • Pulse sequence: Rapid acquisition with relaxation enhancement (RARE)-based inversion recovery sequence • Measuring conditions: Echo time (TE) = 10 ms; [formula] Repetition time (TR) = 10,000 ms; [formula] [formula] RARE Factor = 4; [formula] Field of view (FOV) = 28.0 × 16.0 mm^2; [formula] Slice thickness = 2.0 mm; [formula] Pixel count = 70 × 40; [formula] Resolving power (in-planeresolution) = 0.4 × 0.4 mm^2 [formula] Number of excitations = 1; [formula] • Fat suppression mode: OFF; • FOV saturation: ON • Measuring points: Before administration and 20, 40, 60 minutes and 24 hours after administration • Results: Figs. 38 to 42

[4] = Evaluation of SMDC formation: DA from SEC-MALS in PBS and chloroform; format: physicochemical; details: DA = MwPBS/MwCHCl3; 5 mg/mL, 40°C
Method: The foldability in water of BZAm-PEGAn-CEAk(DOTA)j obtained by the procedure described above was evaluated by comparing the absolute weight-average molecular weight Mw calculated from size exclusion chromatography in aqueous solution (PBS) and in an organic solvent (chloroform or DMF) and a system utilizing a multi-angle light scattering detector (SEC-MALS). Data obtained from SEC-MALS were analyzed using a Zimm plot, with dn/dc being the value calculated by measuring the refractive index of 4 different samples with different concentrations in each solvent (4, 3, 2 and 1 mg/mL). DA was calculated by the following formula. DA = MwPBS/MwCHCl3
• Apparatus: JASCO Extrema HPLC system (LC-Net II/ADC, Co-4060, AS-4050, PU-4180/JASCO Corp. • Detector: UV-4070/JASCO Corp., RI-4030/JASCO Corp., DAWN 8 MALS detector/Wyatt Technology Corporation • Column: OHpak SB-804HQ column/Showa Denko K.K. • (column size: 8 mm × 300 mm, pore size: 20 nm, particle size: 10 µm, exclusion limit: 1 × 10^6 g/mol) • OHpak SB-806 MHQ column/Showa Denko K.K. • (column size: 8 mm × 300 mm, pore size: 1.5 µm, particle size: 13 µm, exclusion limit: 2 × 10^7 g/mol) • OHpak SB-G 6B Guard column/Showa Denko K.K. • Mobile phase: 137 mM NaCl, 2.7 mM KCl, 11.9 mM phosphate buffer (PBS), pH 7.4 Temperature: 40°C • Flow rate: 1 mL/min • Sample concentration : 5 mg/mL • Results: Table 21
• Apparatus: TOSOH HLC-8220 GPC system/Tosoh Corp. • Detector: DAWN HELEOS II MALS detector/Wyatt • Column: LF-804 column/Showa Denko K.K. • (column size: 8 mm × 300 mm, pore size: 300 nm, particle size: 6 µm, exclusion limit: 2 × 10^6 g/mol) • LF-G guard column/Showa Denko K.K. • Mobile phase: chloroform • Temperature: 40°C • Flow rate: 1 mL/min • Sample concentration : 5 mg/mL • Results: Table 21

[5] = Zeta potential (surface potential) measurement; format: physicochemical; details: for surface charge (zeta potentials): ultrapure water
Method: (§1) For the previously obtained BZAm-PEGAn-CEAk(DOTA)j and PEGAn-CEAk(DOTA)j, the particle size was confirmed by Guinier plot in small angle x-ray scattering (SAXS), and SMDC formation was confirmed by Kratky plot. The particle size was also measured by transmission electron microscopy (TEM) and dynamic light scattering. The surface potential was also measured.
• Apparatus: Malvern Zetasizer Nano ZSP/Malvem Panalytical • Solvent: Ultrapure water • Sample concentration : 10 mg/ml • Measuring temperature: room temperature • Results: Fig. 16 and Fig. 17

[6] = SAXS measurement (Guinier plot particle size, Kratky plot); format: physicochemical; details: SAXS in aqueous solution, 10 mg/ml
Method: as §1
• Apparatus: nano-viewer SAXS system/Rigaku Corp. • Solvent: Ultrapure water or DMF • Sample concentration : 10 mg/ml • Measuring temperature: room temperature • Results: Fig. 12 and Fig. 13

[7] = Relaxivity measurement (r1, r2), 0.47T NMR; format: physicochemical; details: compared with Gd-DOTA, 37°C
Method: Different polymer samples (Gd conc. 1 mM, 0.5 mM, 0.25 mM and 0.125 mM) were prepared, and the longitudinal relaxation time T1 and transverse relaxation time T2 were measured for each concentration. Using the obtained results, a plot of Gd concentration with respect to obtained relaxation time was drawn, and the longitudinal relaxivity r1 and transverse relaxivity r2 were derived from the slope of the fitted curve, based on the following formula. Here, (1/Ti)obs represents the measured relaxation time, and (1/Ti)d represents the relaxation time of the solvent. (1/Ti)obs = (1/Ti)d + ri [Gd]. i = 1, 2 [formula]
• Apparatus: Bruker minispec 0.47T NMR/Bruker • Solvent: Ultrapure water or BSA (10 mg/mL)-dissolved ultrapure water • Measuring conditions: Temperature: 37°C, receiver gain = 80-82, recycle delay = 2. • Results: Table 22

[8] = Pharmacokinetics test for Gd-NCT (single or 3 administrations), Gd by ICP-MS; format: in vivo, mice
Method: A tumor-bearing model was prepared by subcutaneous grafting of CT26 mouse colorectal cancer cells into mice (Balb/c, 6-week-old, female, SLC) by the same procedure as for the SMDC-Gd pharmacokinetics test, and a pharmacokinetics test was conducted as an experiment for Gd-NCT. In this case, however, each sample was administered once or 3 times through the caudal vein of the mouse (0, 24 and 48 hours afterwards, Gd conc. 0.1 mmol/kg, n = 5), with blood collection and organ dissection and collection (tumors, liver and kidneys) 24 hours after the final administration. Each organ was pretreated by the same procedure as described above, and the Gd concentration was also measured in the same manner using ICP-MS. • Apparatus: Agilent 7700x ICP-MS/Agilent • Pretreatment apparatus: EYELA MG-2300/Tokyo Rikakikai Co., Ltd. • Standard solution: Gadolinium standard solution (Gd1000) for ICP analysis/FujiFilm-Wako • Results: Fig. 46 and Fig. 47

[9] = TEM particle size measurement; format: physicochemical; details: by folding; method not given
Method: as §1
• Apparatus: JEM-2100F TEM system/JEOL Corp. • Solvent: Ultrapure water • Pretreatment: Stained on formvar/carbon supported-copper grids • Measuring temperature: room temperature • Results: Fig. 14 and Fig. 15

[10] = 3 doses given every 24 hours, after the final 24 hours

Row | Compound | antitumor effect by Gd-NCT (tumor volume) [1] | blood retentivity and blood clearance [2] | tumor accumulation (Gd concentration) [2] | tumor/muscle ratio (T/M ratio) of the relaxation rate ([3]; 1 hour after administration) | DA [4] | surface charge (zeta potentials) [5] | Kratky plot (particle formation) [6] | longitudinal relaxivity (r1) [7] | accumulation in different organs [2] | further results
1 | O=C([O-])CN1CCN(CC(=O)[O-])CCN(CC(=O)O)CCN(CC(=O)[O-])CC1.[Gd+3] [Gd-DOTA, gadoteric acid] | failed to exhibit sufficient antitumor activity | rapidly excreted from the blood | low | 0.77 |  |  |  |  |  | 
2 | BZA100-PEGA70-CEA30(DOTA)17 [TP6] |  | more rapid |  |  | 0.53 | negative | form particles in aqueous solution | higher | accumulated more abundantly in the liver, spleen and kidneys | zeta potential [5]: -37 mV
3 | BZA100-PEGA80-CEA20(DOTA)9 [TP5] |  |  |  |  | 0.88 |  | form particles in aqueous solution | higher |  | 
4 | BZA100-PEGA90-CEA10(DOTA)4 [TP4] | suppressed tumor growth | equivalent | at least twice that of SMDC-Gd17 and PEGA-Gd4 | 1.17 | 0.91 | negative | form particles in aqueous solution | higher | equivalent to typical nanomedicine | intratumoral Gd concentration [8, 10]: 91.2 ppm; intratumoral concentration in terms of ^157Gd groups [8, 10]: 14.3 ppm; intratumoral concentration in terms of ^157Gd groups ([8]; single dose, 24 hours after injection): 6.4 ppm; intratumoral Gd concentration ([8]; single dose, 24 hours after injection, Gd conc. 0.1 mmol/kg): 41.2 ppm; diameter [9]: about 6 nm; change in body weight after Gd-NCT [1]: without body weight loss; contrast effect in tumor tissue ([3]; longitudinal relaxation rate of tumors): high contrast effect; tumor/muscle ratio (T/M ratio) of the relaxation rate ([3]; within 24 hours after administration): 1.36
5 | PEGA104-CEA30(DOTA)12 [PEGA-Gd12] |  |  |  |  |  |  |  | higher |  | 
6 | PEGA124-CEA10(DOTA)4 [PEGA-Gd4] |  | equivalent |  |  |  | negative | no peak could be confirmed | higher |  | R1 value ([3]; during the 24 hours, compared with SMDC-Gd4): consistently lower than SMDC-Gd4
